Results from patent US20260109755A1 (published 2026).
Where a chain is given by its changes, count along the chain named. In names and notes the source's numbering stands.

T1: SH3 domain-containing YSC84-like 1 (SH3YL1), antigen of the antibodies (UniProt Q96HL8 1-342)
T1 chain: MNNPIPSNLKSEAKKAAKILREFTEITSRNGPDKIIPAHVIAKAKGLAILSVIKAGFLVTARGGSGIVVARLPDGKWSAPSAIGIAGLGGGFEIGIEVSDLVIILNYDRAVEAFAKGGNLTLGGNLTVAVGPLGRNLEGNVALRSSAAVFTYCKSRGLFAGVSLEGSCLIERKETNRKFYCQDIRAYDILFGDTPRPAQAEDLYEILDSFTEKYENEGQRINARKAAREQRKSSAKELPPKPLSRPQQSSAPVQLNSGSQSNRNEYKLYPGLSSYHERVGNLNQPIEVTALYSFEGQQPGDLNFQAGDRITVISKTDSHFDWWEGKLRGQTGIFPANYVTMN

B1: 3E11 antibody (antibody, V domains shown)
VH: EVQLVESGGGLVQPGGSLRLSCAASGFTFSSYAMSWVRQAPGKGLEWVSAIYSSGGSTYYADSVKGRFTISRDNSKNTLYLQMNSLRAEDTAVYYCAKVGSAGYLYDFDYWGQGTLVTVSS
VL: DIQMTQSPSSLSASVGDRVTITCRASQDIANYLNWYQQKPGKAPKLLIYATSTLQSGVPSRFSGSGSGTDFTLTISSLQPEDFATYYCQQSYSSPWTFGQGTKVEIKR
B2: 4H7 antibody (antibody, V domains shown)
VH: EVQLVESGGGLVQPGGSLRLSCAASGFTFSTYGMSWVRQAPGKGLEWVSAISSSGGSIYYADSVKGRFTISRDNSKNTLYLQMNSLRAEDTAVYYCAKVSYPGLAFDIWGQGTLVTVSS
VL: B1 VL with D28T, A30S, T53S
B3: 4F10 antibody (antibody, V domains shown)
VH: EVQLVESGGGLVQPGGSLRLSCAASGFTFSDYAMSWVRQAPGKGLEWVSAIYSTGSSTYYADSVKGRFTISRDNSKNTLYLQMNSLRAEDTAVYYCAKVGWYLFDYWGQGTLVTVSS
VL: B1 VL with D28S, A30S, N31R, T53R
B4: 4G4 antibody (antibody, V domains shown)
VH: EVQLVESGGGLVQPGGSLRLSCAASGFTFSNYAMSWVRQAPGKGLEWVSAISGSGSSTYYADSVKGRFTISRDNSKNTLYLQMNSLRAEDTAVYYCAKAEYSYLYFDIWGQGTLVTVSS
VL: B1 VL with D28S, A30S, Y32W, T51A, T53R
B5: 4F9 antibody (antibody, V domains shown)
VH: B2 VH with T31D, G33A, S52K, G56S, I58T, V99A, S100E, P102E, G103Y
VL: B1 VL with A30S, N31S, Y32W
B6: S4A antibody (antibody, V domains shown)
VH: EVQLLESGGGLVQPGGSLRLSCAASGFTFSSYSMNWVRQAPGKGLEWVSWISPNSGSTDYAQKFQGRFTISRDNSKNTLYLQMNSLRAEDTAVYYCARTPPGTPFDYWGQGTLVTVSS
VL: QSVLTQPPSASGTPGQRVTISCSGNNIGSKSVHWYQQLPGTAPRLLIYSTSNKHSGVPDRFSGSKSGTSASLAISGLHSEDEADYYCSSYTSSGTRVFGGGTKLTVLG
B7: 5D5 antibody (antibody, V domains shown)
VH: EVQLVESGGGLVQPGGSLRLSCAASGFTFSDYAMSWVRQAPGKGLEWVSSISSTGSTTYYADSVKGRFTISRDNSKNTLYLQMNSLRAEDTAVYYCAKVLYEYLYFDYWGQGTLVTVSS
VL: B1 VL with A30R, Y32W, T51A, T53S

Biological target: T1, SH3 domain-containing YSC84-like 1 …

For B1, which Kd is on record?
The Kd was 3.56 nM.

B2 was tested. Which Kd did it give?
The Kd was 3.43 nM.

For B3, which Kd is on record?
The Kd was 0.404 nM.

B4 was tested. Which Kd did it give?
The Kd was 2.96 nM.

How did the Kd turn out when B5 was run?
The Kd was 3.63 nM.

Which Kd does the source give for B6 here?
Its Kd is 2.06 nM.

For B7, which Kd is on record?
The Kd was 5.49 nM.
